Laboratory results reported in patent US20200407445A1 (ITEOS THERAPEUTICS, published 2020).
Substitutions are numbered along the chain they refer to.

T1: recombinant human TIGIT protein (construct not stated) (human, UniProt Q495A1 22-141, limits assumed)
T1 construct: also called hTIGIT (Creative Biomart); recombinant TIGIT protein
T1 sequence (looked up): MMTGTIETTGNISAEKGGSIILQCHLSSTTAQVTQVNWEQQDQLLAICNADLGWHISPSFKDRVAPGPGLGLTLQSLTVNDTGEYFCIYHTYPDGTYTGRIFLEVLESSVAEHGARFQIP

T2: human TIGIT expressed on cells (human, UniProt Q495A1 22-244)
T2 construct: whole, on cells; on Jurkat E6.1 cells transduced with human TIGIT, on Promega TIGIT Effector cells or on human primary T cells; the assay field says which; also called hTIGIT; Jurkat-hTIGIT
T2 sequence (looked up): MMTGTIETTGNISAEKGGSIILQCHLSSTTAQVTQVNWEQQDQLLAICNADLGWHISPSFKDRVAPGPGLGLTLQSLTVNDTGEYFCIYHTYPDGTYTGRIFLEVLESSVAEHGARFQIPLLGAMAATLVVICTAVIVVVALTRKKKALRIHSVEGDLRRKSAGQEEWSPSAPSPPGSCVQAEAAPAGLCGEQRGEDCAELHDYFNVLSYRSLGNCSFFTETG

T3: Mouse TIGIT-Fc (mouse, UniProt P86176 29-148, limits assumed)
T3 construct: not shown: Fc part
T3 sequence (looked up): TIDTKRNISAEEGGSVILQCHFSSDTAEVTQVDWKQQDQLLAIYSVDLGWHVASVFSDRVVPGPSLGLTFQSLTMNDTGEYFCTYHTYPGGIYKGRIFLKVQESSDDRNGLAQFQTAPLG

T4: Human TIGIT-His (human, UniProt Q495A1 22-141, biotinylated in the ForteBio Fab assay)
T4 construct: bought (Creative Biomart); also called Biotinylated Human TIGIT HIS; TIGIT-His monomer; not shown: His tag
T4 sequence (looked up): T1 sequence (looked up)

B1: 22G2 (comparative anti-TIGIT antibody, human IgG1) (antibody, V domains shown)
VH: QVHLQESGPGLVKPSETLSLTCTVSGGSVSSGIYYWSWIRQPPGKGLEWIGYIYYSGSTNYNPSLKSRVTISVDTSKNQFSLKLSSVTAADTAVYYCARDYYVSGNYYNVDYYFFGVDVWGQGTTVTVSS
VL: EIVLTQSPATLSLSPGERATLSCRASQSVSSYLAWYQQKPGQAPRLLIYDASNRATGIPARFSGSGSGTDFTLTISSLEPEDFAVYYCQQRSNWPPLFTFGPGTKVDIK
notes: from WO2016/106302; made in HEK cells as human IgG1
B2: 31C6 (MEB125.31C6.A1.205 VH4/VL1; comparative anti-TIGIT antibody, human IgG1) (antibody, V domains shown)
VH: EVQLVQSGAEVKKPGASVKVSCKASGYTFSSYVMHWVRQAPGQGLEWIGYIDPYNDGAKYAQKFQGRVTLTSDKSTSTVYMELSSLRSEDTAVYYCARGGPYGWYFDVWGQGTTVTVSS
VL: DIQMTQSPSSLSASVGDRVTITCRASEHIYSYLSWYQQKPGKAPKLLIYNAKTLAEGVPSRFSGSGSGTDFTLTISSLQPEDFATYYCQHHFGSPLTFGQGTRLEIK
notes: from WO2016/028656; made in HEK cells as human IgG1; also called 3106 (as the text prints it)
B3: Fab of anti-TIGIT clone 29527 (Fab, V domains shown)
VH: QVQLVESGGGVVQPGRSLRLSCAASGFTFSSSYMHWVRQAPGKGLEWVAVIGADGSNKYYADSVEGRFTISRDNSKNTLYLQMNSLRAEDTALYYCAKPVPRRRGLDVWGQGTMVTVSS
VL: DIQLTQSPSSVSASVGDRVTITCRASQGISSWLAWYQQKPGKAPKLLIYGASSLQSGVPSRFSGSGSGTDFTLTISSLQPEDFATYYCQQAFYLPWTFGGGTKVEIK
B4: Fab of anti-TIGIT clone 26432 (Fab, V domains shown)
VH: QVQLVQSGAEVKKPGSSVKVSCKASGGTFSSYAISWVRQAPGQGLEWMGGIIPIFGTANYAQKFQGRVTITADESTSTAYMELSSLRSEDTAVYYCAREAQSYRVPFDIWGQGTMVTVSS
VL: EIVMTQSPATLSVSPGERATLSCRASQSVSSNLAWYQQKPGQAPRLLIYGASTRATGIPARFSGSGSGTEFTLTISSLQSEDFAVYYCQQYAIWPPFTFGGGTKVEIK
B5: TIG1 (comparative anti-TIGIT antibody, human IgG1) (antibody, V domains shown)
VH: DVQLVESGGGLVQPGGSRKLSCAASGFTFSNFGMHWVRQAPEKGLEWVAFISSGSSSIYYADTVKGRFTISRDNPKNTLFLQMTSLRSEDTAMYYCARMRLDYYAMDYWGQGTSVTVSS
VL: DVQITQSPSYLAASPGETITINCRASKSISKYLAWYQEKPGKTNKLLIYSGSTLQSGIPSRFSGSGSGTDFTLTISSLEPEDFAMYYCQQHNEYPWTFGGGTKLEIK
notes: from WO2017/152088; made in HEK cells as human IgG1
B6: Fab of anti-TIGIT clone 29478 (Fab, V domains shown)
VH: EVQLVESGGGVVQPGRSLRLSCAASGFTFESYGMVWVRQAPGKGLEWVASILYDGSNRYYADSVKGRFTVSRDNSKNTLYLQMNSLRAEDTAVYYCARVSYYYDSVELRWAEYFQHWGQGTLVTVSS
VL: EIVLTQSPATLSLSPGERATLSCRASQSVSSYLAWYQQKPGQAPRLLIYDASKRATGIPARFSGSGSGTDFTLTISSLEPEDFAVYYCQQVHNFPLTFGGGTKVEIK
B7: Fab of anti-TIGIT clone 29513 (Fab, V domains shown)
VH: QVQLVQSGAEVKKPGSSVKVSCKASGGTFQNYAISWVRQAPGQGLEWMGVIVPIFGTANYAQKFQGRVTVTADESTSTAYMELSSLRSEDTAVYYCARLHLGQKAYYGMDVWGQGTTVTVSS
VL: DIQMTQSPSSLSASVGDRVTITCRASQSISSYLNWYQQKPGKAPKLLIYAASSLQSGVPSRFSGSGSGTDFTLTISSLQPEDFATYYCQQRYVFPPTFGGGTKVEIK
B8: Fab of anti-TIGIT clone 29520 (Fab, V domains shown)
VH: QVQLVESGGGLVQPGRSLRLSCAASGFTFRDYAMHWVRQAPGKGLEWVSGITWNSGLIGYADSVKGRFTISRDNAKNSLYLQMNSLRAEDTALYYCAKPVPRLRGLDVWGQGTMVTVSS
VL: B3 VL
B9: Fab of anti-TIGIT clone 26493 (Fab, V domains shown)
VH: B8 VH with Q1E, R30G, L57S, R102K, L103S
VL: B3 VL

Key:
[1] = target: T1, recombinant human TIGIT protein …; assay: Biacore T200, IgG captured by anti-human Fc, antigen in solution, 1:1 kinetic model
Protocol: Biosensor analysis was conducted at 25° C. in a HBS-EP buffer system (10 mM HEPES pH 7.3, 150 mM NaCl, 3 mM EDTA, 0.05% Tween20) using Biacore T200 technology, CMS sensor chip (run at Novalix, France). The sample hotel was maintained at 8° C. Goat anti-human IgG capture antibody (Fcγ fragment specific, Jackson ImmunoResearch Laboratories) was immobilized (10000 RU) to both flow cells of the sensor chip using standard amine coupling chemistry. This surface type provided a format for reproducibly capturing fresh analysis antibody after each regeneration step. Flow cell 2 was used to analyse captured antibody while flow cell 1 was used as a reference flow cell. […] Two blank (buffer) injections also were run and used to assess and subtract system artefacts. The association (300 s) and dissociation (600 s) phases for all antigen concentrations were performed at a flow rate of 30 uL/min. The surface was regenerated with three sequential injections (15 s, 15 s and 60 s) of 10 mM glycine-HCl, pH 1.5. The obtained sensorgrams were fitted globally to a 1:1 model (assuming the same kinetic values for all applied concentrations).

[2] = target: T2, human TIGIT expressed on cells; assay: flow cytometry, primary CD8+ T cells of healthy human PBMC, MFI
Protocol: Isolated human PBMCs from healthy volunteers were analysed for binding by antagonist anti-TIGIT antibodies. Cells were distributed at 1×10⁵ cells per well. Cells were incubated with anti-CD16 (Clone 3G8, BioLegend 302002), CD32 (Clone FLI8.26, BD Bioscience 557333) and CD64 (BD Bioscience 555525) at room temperature for 10 min, and the indicated anti-human TIGIT antibody clones were directly added at a final concentration of 8; 4; 2; 1; 0.5; 0.25; 0.125; 0.062; 0.031; 0.016; 8×10⁻³ and 4×10⁻³ nM in FACS buffer and incubated for 20 min at 4° C. […] Then, cells were washed and incubated with the following antibodies and LVD mix: anti-CD4-PercP-Cy5.5 (clone A161A1, BioLegend 357414); anti-CD8-BV510 (clone SK1, BD Bioscience 563919) and LVD efluor 660 (eBioscience 65-0864-18).
The EC50 values for binding to CD8+ human primary T cells were calculated using the MFI signal on living TIGIT+CD8+ T cells.

[3] = target: T2, human TIGIT expressed on cells; assay: cell-based or functional assay
[4] = target: T2, human TIGIT expressed on cells; assay: flow cytometry, primary CD8+ T cells of cancer patients' PBMC, MFI
Protocol: Cells were distributed at 1×10^5 cells per well. […] Then, cells were washed and incubated with the following antibodies and life viability dye (LVD) mix: anti-CD4-PercP-Cy5.5 (clone A161A1, BioLegend 357414); anti-CD8-BV510 (clone SK1, BD Bioscience 563919) and LVD efluor 520 (eBioscience 65-0867-14). Cells were washed and fixed and surface staining was quantified using BD LSR Fortessa. Flow cytometry data was analysed using FlowJo V10.1. TIGIT MFI on gated LVD-TIGIT+CD8+ cells was used to calculate EC50 values.

[5] = target: T2, human TIGIT expressed on cells; assay: cell-based or functional assay; remark: listed apart in the source
[6] = target: T2, human TIGIT expressed on cells; assay: flow cytometry on Jurkat-hTIGIT
Protocol: Antibodies were incubated with the cells for 20 min at 4° C. in FACS buffer. […] Fluorescence intensity was analysed using LSR BD Fortessa and cell binding was recorded as the median fluorescence intensity of PE in cells expressing TIGIT at their surface.
The half-maximal concentration of binding (EC50) to Jurkat-hTIGIT was calculated using a four-variable curve-fit equation in Prism.

[7] = target: T2, human TIGIT expressed on cells; assay: flow cytometry, competition with CD155-His (15 ug/ml) on Jurkat-hTIGIT
Mouse TIGIT-Fc = target: T3, Mouse TIGIT-Fc; assay: ForteBio BLI, Fab KD, monovalent
Cyno TIGIT-Fc = target: T5, Cyno TIGIT-Fc (cynomolgus, UniProt A0A7N9I9V4 89-209); assay: ForteBio BLI, Fab KD, monovalent
T5 construct: not shown: Fc part

Human TIGIT-His = target: T4, Human TIGIT-His; assay: ForteBio BLI, Fab KD, monovalent

T5 sequence (A0A7N9I9V4 entry or part of it): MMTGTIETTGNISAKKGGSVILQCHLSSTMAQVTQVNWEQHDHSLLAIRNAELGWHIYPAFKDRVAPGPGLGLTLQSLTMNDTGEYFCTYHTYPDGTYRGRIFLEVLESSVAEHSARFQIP

Binder	Kd [1] [nM]	koff [1] [s⁻¹]	EC50 [2] [nM]	Fold change of EC50 over EC50 of best clone (31282_wu) [2] [fold]	EC50 [4] [nM]	Fold change of EC50 over EC50 of best clone (31282) [4] [fold]	EC50 [6] [nM]	Fold change of EC50 over EC50 of best clone (31282_wu) [6] [fold]	Fold change of IC50 over IC50 of best clone (31282_up) [7] [fold]	IC50 [7] [nM]	Kd (Mouse TIGIT-Fc) [nM]	Kd (Cyno TIGIT-Fc) [nM]	Kd (Human TIGIT-His) [nM]	also measured
B1	0.071	0.000178	1.17	6.1	0.37	3.1	0.32	3	2.2	0.09	–	–	–	EC50 (nM), IFNg, human primary CD8+ T cells [3]: 0.41 nM; Fold change of EC50 over EC50 of best clone (31282_wu) [3]: 3.1 fold; Induction over isotype control (fold change), IFNg, human primary CD8+ T cells + CD155 aAPC/CHO-K1 [3]: 1.5 fold; EC50 (nM), luciferase, Jurkat-hTIGIT [5]: 5.2 nM; Fold change of EC50 over EC50 of best clone (31282_up) [5]: 1.6 fold; Induction over Isotype control (fold change), luciferase, Jurkat-hTIGIT + CD155 aAPC/CHO-K1 [5]: 5.3 fold
B2	0.067	0.000209	0.39	2	0.18	1.5	0.13	1.2	1.7	0.07	–	–	–	EC50 (nM), IFNg, human primary CD8+ T cells [3]: 0.3 nM; Fold change of EC50 over EC50 of best clone (31282_wu) [3]: 2.3 fold; Induction over isotype control (fold change), IFNg, human primary CD8+ T cells + CD155 aAPC/CHO-K1 [3]: 1.6 fold; EC50 (nM), luciferase, Jurkat-hTIGIT [5]: 5.3 nM; Fold change of EC50 over EC50 of best clone (31282_up) [5]: 1.6 fold; Induction over Isotype control (fold change), luciferase, Jurkat-hTIGIT + CD155 aAPC/CHO-K1 [5]: 6.7 fold
B3	–	–	–	–	–	–	–	–	–	–	20.2	17.6	1.33	–
B4	–	–	–	–	–	–	–	–	–	–	–	–	13.1	binding result (Mouse TIGIT-Fc): no binding; binding result (Cyno TIGIT-Fc): no binding
B5	2.49	0.0131	0.38	2	0.33	2.7	0.17	1.6	1.6	0.06	–	–	–	–
B6	–	–	–	–	–	–	–	–	–	–	91.8	1.26	0.703	–
B7	–	–	–	–	–	–	–	–	–	–	85.5	9.56	0.774	–
B8	–	–	–	–	–	–	–	–	–	–	1.95	2.68	1.31	–
B9	–	–	–	–	–	–	–	–	–	–	26.7	–	40.6	binding result (Cyno TIGIT-Fc): no binding
